Reference: patent EP3265123B1 (Kymab Limited, dated 2022)

What was measured:
[1] = biological target: T1, Recombinant Human OX40L (Leader sequence, Isoleucine Zipper and FLAG Sequence Included) (human); assay: cell-based or functional assay
[2] = biological target: T1, Recombinant Human OX40L (Leader …); assay: HTRF ligand/receptor neutralisation, biotinylated hOX40L with OX40RFc-AF647 as competitor; mean of three experiments
[3] = biological target: T1, Recombinant Human OX40L (Leader …); assay: SPR (ProteOn XPR36), antibody captured on anti-mouse IgG, OX40L at 256 nM, 1:1 model, apparent affinity, 25 C

T1 sequence (chain, as listed by the source limits assumed): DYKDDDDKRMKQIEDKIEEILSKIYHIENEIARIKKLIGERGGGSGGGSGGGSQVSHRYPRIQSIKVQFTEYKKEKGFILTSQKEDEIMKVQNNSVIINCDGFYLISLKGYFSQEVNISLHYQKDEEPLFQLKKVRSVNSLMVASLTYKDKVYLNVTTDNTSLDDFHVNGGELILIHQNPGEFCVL

Row | Primary T-cell Assay IC50 (recombinant OX40L induced IL2 release from primary human T-cells) [1] | IC50 [2] | Kd [3] | Binder
1 | 0.81 nM | 0.75 nM | – | 2D10 (human) (antibody, human IgG4 S228P, kappa, V domains shown, Fully human recombinant IgG4-PE (Ser228Pro, Leu235Glu) with human kappa light chain, expressed in CHO-S; also called 02D10; 2D10 IgG4PE) VH: EVQLVESGGGLVQPGGSLRLSCAASGFTFSNYAMNWVRQAPGKGLEWVSTISGSGGATRYADSVKGRFTISRDNSRNTVYLQMNSLRVEDTAVFYCTKDRLIMATVRGPYYYGMDVWGQGTTVTVSS VL: DIQMTQSPSSLSASVGDRVTITCRASQSISSYLNWYQQKPGKAPNLLIYAASSLQSGVPSRFSGSGSETDFTLTISSLQPEDFATYYCQQSHSVSFTFGPGTKVDIKR
2 | – | – | 2.2 nM | 19H01 (hybridoma) (antibody, V domains shown, Purified from hybridoma supernatant as a murine/human chimeric antibody (human variable domains, mouse constant regions)) VH: not shown VL: DIQMTQSPSSLSASVGDRVTITCRASQGISNYLAWYQQKPGKIPKLLIYAASTLQSGVPSRFSGSGSGTDFTLTISSLQPEDVATYYCQKYNSAPRTFGQGTKVEIK
3 | – | – | 5.3 nM | 9H04 (hybridoma) (antibody, V domains shown, Purified from hybridoma supernatant as a murine/human chimeric antibody (human variable domains, mouse constant regions); also called 09H04) VH: QVQLVESGGGLVKPGGSLRLSCAASRFTLSDYYMTWIRQAPGKGLEWVSYISSSGNTIYYADSVKGRFTISRDNAKNSLYLQMNSLRAEDTAVYYCARDLSGSYWDYYYGMDVWGQGTTVTVSS VL: AIQLTQSPSSLSTSVGDRVTIACRASQGINNALAWYQQKPGKAPKLLIYDASSLESGVPSRFSGSGSGTDFTLTISSLQPEDFATYYCQQFNSYPRTFGQGTKVEIK
